In this assay the target is rabbit IgG.

Substance “TEM-PA hybrid protein where one repeated domain of the protein A was internalised (from UniProt P62593 24-195; P38507 212-269; P62593 196-286)” returned an amount of immobilised rabbit IgG that can be detected of 10 to 100 ng.
